Test results as given in patent US20220363763A1 (ABL BIO, published 2022).

Tests used:
[1] = biological target: T1, human LAG3 on cells (human, UniProt P18627 23-525); assay: flow cytometry (MFI) on Jurkat-LAG3 cells, upper panel; EC50 table has no unit, x axis Concentration (nM); Table 31 of the text prints the rounded 0.4
T1 construct: whole, on cells; also called Jurkat-LAG3
T1 sequence (looked up): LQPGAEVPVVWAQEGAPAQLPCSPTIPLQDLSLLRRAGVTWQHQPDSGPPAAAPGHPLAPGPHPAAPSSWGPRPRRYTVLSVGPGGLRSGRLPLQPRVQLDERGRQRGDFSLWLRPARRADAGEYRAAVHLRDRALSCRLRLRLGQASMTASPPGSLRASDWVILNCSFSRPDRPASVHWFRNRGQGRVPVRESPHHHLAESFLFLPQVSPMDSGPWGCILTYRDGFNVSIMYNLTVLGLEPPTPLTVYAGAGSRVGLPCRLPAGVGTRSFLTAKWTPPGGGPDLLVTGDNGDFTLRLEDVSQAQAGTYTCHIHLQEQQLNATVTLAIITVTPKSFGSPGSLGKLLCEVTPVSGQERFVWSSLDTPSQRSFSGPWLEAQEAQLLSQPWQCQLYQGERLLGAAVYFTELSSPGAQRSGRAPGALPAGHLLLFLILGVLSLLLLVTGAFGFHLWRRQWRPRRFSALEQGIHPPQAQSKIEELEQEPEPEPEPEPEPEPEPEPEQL
Protocol: (§1) To further confirm affinity matured anti-LAG-3 antibodies could bind to cell-derived human LAG3, both inducible hLAG3 expressed Jurkat cells and activated PBMCs were used to test the binding capability of B3807b and B3810. In brief, Jurkat cells were resuspended in FACS buffer. Anti-LAG3 antibodies and isotype control were 4-fold serially diluted in FACS buffer with a dose ranging from 20 nM to 30 pM. The serially diluted antibodies were added to the cell suspension and incubated for 30 minutes on ice. Then after removal of unbound antibodies, cells were stained with anti-human IgG conjugated with Alexa Fluor 633 (Thermo, A21091). Fluorescence measurement was acquired on FACSCelesta flow cytometer and analyzed in Flowjo to determine the mean fluorescence intensities (MFI). To test anti-LAG3 antibodies' ability of binding to native human LAG3, PBMCs from health donor were stimulated with anti-CD3 (BD, 555336) and anti-CD28 (BD, 555725) both at a concentration of 1 ug/ml. Following 3 days' stimulation, cells were harvested and incubated with anti-LAG3 antibodies for 30 mins on ice. The cells were stained with anti-human CD4 and anti-human IgG. Analysis of antibodies binding to CD4+ cells were carried out on FACSCelesta flow cytometry. […] FIG. 31 is a graph showing the binding curve of anti-LAG3 antibodies.

[2] = biological target: T2, recombinant human LAG-3-ECD-human IgG1 fusion protein (human, UniProt P18627 23-450, biotin-labeled in the MHC class II blocking assays); assay: ELISA as Example 2.2, coated human LAG3 ECD-Fc
T2 construct: extracellular domain; also called LAG-3-huFc; LAG-3-ECD-huFc; not shown: human IgG1 Fc
T2 sequence (looked up): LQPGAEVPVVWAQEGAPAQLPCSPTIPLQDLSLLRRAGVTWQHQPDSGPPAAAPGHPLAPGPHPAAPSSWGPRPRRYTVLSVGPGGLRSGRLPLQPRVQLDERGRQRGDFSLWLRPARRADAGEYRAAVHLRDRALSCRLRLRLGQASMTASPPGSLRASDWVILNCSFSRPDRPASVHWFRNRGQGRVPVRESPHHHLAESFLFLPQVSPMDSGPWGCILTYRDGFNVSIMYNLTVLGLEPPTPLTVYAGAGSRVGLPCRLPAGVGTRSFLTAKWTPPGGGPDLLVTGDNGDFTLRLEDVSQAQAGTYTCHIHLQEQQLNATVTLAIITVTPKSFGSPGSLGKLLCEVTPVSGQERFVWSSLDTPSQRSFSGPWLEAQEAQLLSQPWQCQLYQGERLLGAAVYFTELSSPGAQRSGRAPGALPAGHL
Protocol: To evaluate the capability of the anti-LAG-3 antibodies to bind to human, rat, and mouse LAG3 the antibodies identified in Example 2.1 were evaluated for their binding property through ELISA. The human, rat and mouse LAG3 ECD-Fc protein were coated to ELISA plate at 1 μg/ml with 100 μl/well. Antibodies from Example 1 were serially diluted with ELISA diluent buffer. […] The resulting plates were washed and then labeled with anti-human IgG(Fab)-HRP antibody. The S31 can only bind to human LAG3. The S27 and T99 can bind to human LAG3 and rat/mouse LAG3 with lower potency. The S119 antibody can bind to human, rat and mouse LAG3 at high potency (FIGS. 22A-22D).

[3] = biological target: T1, human LAG3 on cells; assay: flow cytometry on hLAG3-expressing Jurkat cells
Protocol: as §1

[4] = biological target: T3, recombinant his-tag human LAG3-ECD protein (human, UniProt P18627 23-450); assay: Biacore, antibody captured, His-tag human LAG3-ECD injected (procedure of Example 2.16(B)); column kd(1/s)
T3 construct: extracellular domain; not shown: his tag
T3 sequence (looked up): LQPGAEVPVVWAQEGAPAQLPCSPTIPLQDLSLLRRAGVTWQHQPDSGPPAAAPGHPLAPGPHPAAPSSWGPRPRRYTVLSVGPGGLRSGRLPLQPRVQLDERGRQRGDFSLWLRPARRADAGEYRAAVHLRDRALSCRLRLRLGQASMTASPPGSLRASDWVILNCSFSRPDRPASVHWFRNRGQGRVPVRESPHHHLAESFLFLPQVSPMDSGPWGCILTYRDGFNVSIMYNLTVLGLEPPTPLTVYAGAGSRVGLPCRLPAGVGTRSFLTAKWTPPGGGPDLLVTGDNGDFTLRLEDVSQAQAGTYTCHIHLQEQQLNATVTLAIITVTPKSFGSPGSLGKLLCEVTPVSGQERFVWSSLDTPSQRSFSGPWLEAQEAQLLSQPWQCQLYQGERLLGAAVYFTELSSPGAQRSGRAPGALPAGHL
Protocol: (§2) The binding of B3807 to recombinant His-tag human LAG3-ECD protein was examined by Biacore T200 using a capture method. B3807 was captured using protein A which was immobilized on CM5 sensor chip. Serial concentrations of his-tag human LAG3-ECD protein (0-12 nM) were injected over capture antibodies at the flow rate of 30 μl/min. The dissociation phase was 900 s or 550 s.
(§3) B3807 was used in the following examples for further testing and preparing bispecific antibodies.

[5] = biological target: T3, recombinant his-tag human LAG3-ECD …; assay: Biacore, antibody captured, His-tag human LAG3-ECD injected (procedure of Example 2.16(B))
Protocol: as §2, §3

[6] = biological target: T1, human LAG3 on cells; assay: flow cytometry (MFI) on activated CD4 T cells, lower panel; EC50 table has no unit, x axis Concentration (nM); Table 31 of the text prints the rounded 0.33
Protocol: as §1

[7] = biological target: T3, recombinant his-tag human LAG3-ECD …; assay: Biacore, antibody captured, His-tag human LAG3-ECD injected (procedure of Example 2.16(B)); column ka (1/Ms)
Protocol: as §2, §3

[8] = biological target: T3, recombinant his-tag human LAG3-ECD …; assay: SPR Biacore T200, capture method as Example 2.7
[9] = biological target: T1, human LAG3 on cells; assay: flow cytometry on activated CD4 T cells
Protocol: as §1

[10] = biological target: T1, human LAG3 on cells; assay: flow cytometry (MFI) on Jurkat-LAG3 cells, upper panel; EC50 table has no unit, x axis Concentration (nM); Table 31 of the text prints the rounded 0.5
Protocol: as §1

[11] = biological target: T1, human LAG3 on cells; assay: flow cytometry (MFI) on activated CD4 T cells, lower panel; EC50 table has no unit, x axis Concentration (nM); Table 31 of the text prints the rounded 0.39
Protocol: as §1

[12] = biological target: T4, human PD-L1-Fc protein (human, UniProt Q9NZQ7 19-239); assay: ELISA on coated human PD-L1-Fc
T4 construct: Coated on ELISA plates; also called huPD-L1; not shown: Fc part
Protocol: To evaluate the antigen binding activity, the antibodies were subjected to ELISA test. Briefly, microtiter plates were coated with human PD-L1-Fc protein at 2 μg/ml in PBS, 100 μl/well at 4° C. overnight, then blocked with 100 μl/well of 5% BSA. 4-fold dilutions of humanized antibodies starting from 10 μg/ml were added to each well and incubated for 1-2 hours at RT. The plates were washed with PBS/Tween and then incubate with […] antibody conjugated with Horse Radish Peroxidase (HRP) for 1 hour at RT. After washing, the plates were developed with TMB substrate and analyzed by spectrophotometer at OD 450-630 nm.

[13] = biological target: T5, human PD-L1 expressed on mammalian cells (human, UniProt Q9NZQ7 19-290); assay: cell-based binding on Raji-PDL1 cells (FACS by paragraph 328; the y axis of the sheet is labelled IL2 (ng/ml)); EC50 table has no unit, x axis Concentration (nM)
T5 construct: whole, on cells; also called PDL1-CHOK1 cells; PDL1-Raji cells
Protocol: To evaluate the antigen binding property, the antibodies were analyzed for its binding to mammalian expressed PD-L1 by FACS. Briefly, PDL1-Raji cells were firstly incubated with 5-fold serious diluted humanized antibodies starting at 2 µg/ml at RT for 1 hour. After wash by FACS buffer (PBS with 2% FBS), the Alexa 488-anti-human IgG antibody was added to each well and incubated at RT for 1 hour. The MFI of Alexa 488 was evaluated by FACSAriaIII.

[14] = biological target: T6, human PD-L1 (construct not stated) (human, UniProt Q9NZQ7 19-239, limits assumed); assay: SPR Biacore, affinity ranking
T6 construct: also called B7-H1 (PD-L1); PD-L1 protein

[15] = biological target: T7, human LAG3-His protein (Sinobio, 16498-H08H) (human, UniProt P18627 23-450); assay: ELISA on coated human LAG3-His, panel LAG3
T7 construct: also called human LAG3 protein; not shown: His tag
T7 sequence (looked up): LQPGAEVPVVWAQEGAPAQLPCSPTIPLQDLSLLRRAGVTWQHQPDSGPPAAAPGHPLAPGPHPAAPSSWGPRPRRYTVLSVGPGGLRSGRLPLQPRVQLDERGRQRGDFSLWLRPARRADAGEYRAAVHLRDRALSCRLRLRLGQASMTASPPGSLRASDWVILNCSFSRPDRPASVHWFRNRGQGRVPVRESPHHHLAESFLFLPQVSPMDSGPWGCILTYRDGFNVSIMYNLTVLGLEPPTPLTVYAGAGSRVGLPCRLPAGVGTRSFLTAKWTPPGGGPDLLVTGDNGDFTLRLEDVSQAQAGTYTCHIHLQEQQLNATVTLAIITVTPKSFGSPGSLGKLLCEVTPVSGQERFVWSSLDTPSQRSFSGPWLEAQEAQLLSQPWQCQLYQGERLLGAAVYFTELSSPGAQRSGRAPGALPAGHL
Outline: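 Bispecific antibodies were tested by ELISA on plates coated overnight at 4° C with human LAG3-His protein at 0.5 μg/ml in PBS (100 μl/well), then blocked with 5% BSA. Four-fold antibody dilutions starting from 100 nM were incubated for 1-2 hours at RT. EC50 was read off the binding curve.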

T6 sequence (Q9NZQ7 19-239 limits assumed): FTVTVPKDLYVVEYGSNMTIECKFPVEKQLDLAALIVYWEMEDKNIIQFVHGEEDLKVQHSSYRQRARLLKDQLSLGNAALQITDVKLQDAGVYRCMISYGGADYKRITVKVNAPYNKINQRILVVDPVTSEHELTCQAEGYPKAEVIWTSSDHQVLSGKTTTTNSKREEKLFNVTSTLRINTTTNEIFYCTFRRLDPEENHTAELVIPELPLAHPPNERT
T5 sequence (Q9NZQ7 19-290): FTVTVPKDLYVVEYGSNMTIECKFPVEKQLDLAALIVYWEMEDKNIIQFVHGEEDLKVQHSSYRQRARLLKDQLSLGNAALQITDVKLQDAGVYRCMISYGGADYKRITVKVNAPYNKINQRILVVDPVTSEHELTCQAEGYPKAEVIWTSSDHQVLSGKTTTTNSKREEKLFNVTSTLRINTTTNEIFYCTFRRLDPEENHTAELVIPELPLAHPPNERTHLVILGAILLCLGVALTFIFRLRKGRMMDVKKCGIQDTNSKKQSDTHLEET
T4 sequence (Q9NZQ7 19-239 limits assumed): as the sequence (Q9NZQ7 19-239 limits assumed) above

B1: 147H 3807b (antibody, V domains shown)
VH: EVQLVQSGAEVKKPGASVKVSCKASGYTFTNYWLGWIKQAPGQGLEWIGDIYPGGDYIVYNEKFKGKATLTADTSISTAYMELSRLRSDDTAVYYCARPNLPKDHWGQGTTVTVSS
VL: DIVMTQSPLSLPVTPGEPASISCRSSKSLLHSNAITYLYWYLQKPGQSPQLLIYQVSNLASGVPDRFSGSGSGTDFTLKISRVEAEDVGVYYCAQYLELPWTFGGGTKVEIK
notes: also called B3807b
EC50 [1]: 0.39 nM | EC50 [2]: 0.41 nM | EC50 [3]: 0.4 nM | koff [4]: 0.00334 s⁻¹ | Kd [5]: 0.968 nM | EC50 [6]: 0.333 nM | kon [7]: 3.46e+06 M⁻¹ s⁻¹ | Kd [8]: 0.51 nM | koff [8]: 0.002 s⁻¹ | kon [8]: 4e+06 M⁻¹ s⁻¹ | EC50 [9]: 0.33 nM

B2: 147H 3810 (antibody, V domains shown)
VH: EVQLVQSGAEVKKPGASVKVSCKASGYLFTNYWLGWIKQAPGQGLEWIGDIYPGGDYIVYNEKFKGKATLTADTSISTAYMELSRLRSDDTAVYYCARPNLPKDHWGQGTTVTVSS
VL: DIVMTQSPLSLPVTPGEPASISCRSSKSLLHSNAITYLYWYLQKPGQSPQLLIYQVSNLATGVPDRFSGSGSGTDFTLKISRVEAEDVGVYYCAQYLELPWTFGGGTKVEIK
notes: also called B3810
EC50 [10]: 0.492 nM | EC50 [2]: 0.49 nM | EC50 [3]: 0.5 nM | EC50 [11]: 0.391 nM | Kd [8]: 0.41 nM | koff [8]: 0.0019 s⁻¹ | kon [8]: 4.7e+06 M⁻¹ s⁻¹ | EC50 [9]: 0.39 nM

B3: B6 (antibody, V domains shown)
VH: EVQLVESGGGLVQPGGSLRLSCAASGFTFSSYDMSWVRQAPGKSLEWVATISDAGGYIYYRDSVKGRFTISRDNAKNSLYLQMNSLRDEDTAVYICARELPWRYALDYWGQGTTVTVSS
VL: DIQMTQSPSSLSASVGDRVTITCKASQDVTPAVAWYQQKPGKAPKLLIYSTSSRYTGVPSRFSGSGSGTDFTFTISSLQPEDIATYYCQQHYTTPLTFGQGTKLEIK
notes: also called B6 monoclonal antibody
EC50 (read off the curve) [12]: ~0.2 µg/mL | EC50 [13]: 1.2 nM | Kd [14]: 1.02 nM | koff [14]: 0.000246 s⁻¹ | kon [14]: 242000 M⁻¹ s⁻¹

B4: 147(H3807)xH12 (bispecific antibody, human IgG4 S228P, kappa)
heavy: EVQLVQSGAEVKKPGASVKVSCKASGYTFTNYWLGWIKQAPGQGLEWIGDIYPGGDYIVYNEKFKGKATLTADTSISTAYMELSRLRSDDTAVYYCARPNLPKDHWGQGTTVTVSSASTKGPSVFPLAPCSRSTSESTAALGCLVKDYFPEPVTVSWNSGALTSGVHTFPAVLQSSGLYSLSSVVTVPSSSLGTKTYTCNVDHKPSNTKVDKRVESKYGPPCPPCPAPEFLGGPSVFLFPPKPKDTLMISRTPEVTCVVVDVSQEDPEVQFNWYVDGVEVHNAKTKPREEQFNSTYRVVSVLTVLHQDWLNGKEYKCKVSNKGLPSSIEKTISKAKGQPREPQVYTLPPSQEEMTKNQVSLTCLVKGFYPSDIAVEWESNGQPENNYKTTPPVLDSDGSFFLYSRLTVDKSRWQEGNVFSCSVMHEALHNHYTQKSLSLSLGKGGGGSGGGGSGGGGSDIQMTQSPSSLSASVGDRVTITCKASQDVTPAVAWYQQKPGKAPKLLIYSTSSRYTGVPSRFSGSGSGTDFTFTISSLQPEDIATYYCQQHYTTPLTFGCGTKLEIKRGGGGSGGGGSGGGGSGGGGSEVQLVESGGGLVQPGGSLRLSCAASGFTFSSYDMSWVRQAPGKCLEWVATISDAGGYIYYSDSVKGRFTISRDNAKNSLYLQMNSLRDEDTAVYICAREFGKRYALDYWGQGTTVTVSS
light: DIVMTQSPLSLPVTPGEPASISCRSSKSLLHSQGITYLYWYLQKPGQSPQLLIYQVSNLASGVPDRFSGSGSGTDFTLKISRVEAEDVGVYYCAQYLELPWTFGGGTKVEIKRTVAAPSVFIFPPSDEQLKSGTASVVCLLNNFYPREAKVQWKVDNALQSGNSQESVTEQDSKDSTYSLSSTLTLSKADYEKHKVYACEVTHQGLSSPVTKSFNRGEC
EC50 (read off the curve) [15]: ~0.4 nM
